Experimental data as given in article PMC10352297, “Determining the structure of the bacterial voltage-gated sodium channel NaChBac embedded in liposomes by cryo electron tomography and subtomogram averaging” (Scientific Reports, 2023).

Biological target: the molecule itself
Assay: cryo-EM structure; cryo electron tomography and subtomogram averaging of NaChBac in proteoliposomes (E. coli polar lipid extract, lipid-to-protein 2:1 wt/wt); polarized membrane, [K+]in 150 mM, [K+]out 3 mM, 1 uM valinomycin, -100 mV; 25 mM HEPES pH 7.0; 3116 particles, C1, 16.3 A

B1: His6-GFP^A206K-NaChBac (natural protein, Bacillus halodurans, UniProt Q9KCR8 1-274, looked up)
chain: MKMEARQKQNSFTSKMQKIVNHRAFTFTVIALILFNALIVGIETYPRIYADHKWLFYRIDLVLLWIFTIEIAMRFLASNPKSAFFRSSWNWFDFLIVAAGHIFAGAQFVTVLRILRVLRVLRAISVVPSLRRLVDALVMTIPALGNILILMSIFFYIFAVIGTMLFQHVSPEYFGNLQLSLLTLFQVVTLESWASGVMRPIFAEVPWSWLYFVSFVLIGTFIIFNLFIGVIVNNVEKAELTDNEEDGEADGLKQEISALRKDVAELKSLLKQSK
notes: NaChBac, prokaryotic voltage-gated sodium channel from Bacillus halodurans; cDNA for full-length NaChBac in pET21a; the tagged subunit is 55 kDa; the channel without tags is about 120 kDa as a tetramer; also called his-GFP-NaChBac; his-tagged GFP^A206K-NaChBac; source: E. coli C41(DE3), purified (Ni-NTA, SEC in DDM), reconstituted into liposomes of E. coli polar lipid extract; not shown: His6, …
B1 was tested, and the “stoichiometry N” value was 4.
